Laboratory results reported in patent US20030215899A1, “Reversible oxidation of protein tyrosine phosphatases” (CEPTYR, Inc., priority 2002, published 2003).
Entries after “also recorded” stand apart in the source; their conditions may differ.

Key:
[1] = target: T1, PTP1B (50 kDa PTP) (Rattus norvegicus, UniProt P20417); test: modified in-gel PTP assay (RCML substrate), insulin stimulated Rat-1 cells; assay type: cell-based; settings: 50 nM insulin, serum-starved Rat-1 cells
T1 construct: endogenous in cells; host or cells: Rat-1 fibroblasts
T1 sequence (P20417 1-432): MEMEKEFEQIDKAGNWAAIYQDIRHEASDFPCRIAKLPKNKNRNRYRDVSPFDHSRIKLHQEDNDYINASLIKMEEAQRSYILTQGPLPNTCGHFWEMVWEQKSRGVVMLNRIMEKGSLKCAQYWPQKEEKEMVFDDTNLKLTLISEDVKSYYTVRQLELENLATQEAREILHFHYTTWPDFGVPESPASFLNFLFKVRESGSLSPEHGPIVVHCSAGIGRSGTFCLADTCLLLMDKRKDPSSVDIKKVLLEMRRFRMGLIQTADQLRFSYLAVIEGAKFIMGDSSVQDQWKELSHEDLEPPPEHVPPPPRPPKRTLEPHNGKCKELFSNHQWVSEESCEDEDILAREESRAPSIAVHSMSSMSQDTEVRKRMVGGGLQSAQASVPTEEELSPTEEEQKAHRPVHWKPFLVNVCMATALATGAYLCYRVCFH
Experimental: (§1) The effect of insulin-induced H2O2 production on PTP oxidation was examined using the modified in-gel PTP assay essentially as described in Example 1. Serum-starved Rat-1 cells were exposed to 50 nM insulin for 2, 5, 10, 20, and 30 minutes. Lysates were prepared under anaerobic conditions in the presence of 10 mM IAA and then subjected to in-gel PTP assays. The substrate incorporated into the SDS-PAGE gels for these assays was ^32P-labeled reduced, carboxamidomethylated and maleylated lysozyme (RCML) (1.5×10^6 cpm/20 ml gel solution, ˜2 μM p-Tyr).
(§2) The oxidized 45 kDa and 50 kDa PTPs were identified as TC-45 and PTP1B, respectively, by immunodepletion and immunoblotting. Total cell lysates were prepared as described in Example 1. Lysate (400 μg) was incubated with normal IgG, anti-PTP1B antibody (FG6, LaMontagne et al., Mol. Cell. Biol. 18:2965-75 (1998)), or anti-TC45 antibody (1910H, Lorenzen et al., J. Cell. Biol. 131:631-43 (1995)) coupled to protein G-Sepharose ^T beads (Amersham Biosciences). After the immunoprecipitation step, the immune complexes and supernatants were collected and subjected to in-gel PTP assays. Immunodepletion of the 50 kDa PTP from the lysate with anti-PTP1B antibody is shown in FIG. 11B, and immunodepletion of the 45 kDa PTP with antibody specific for TC45 is shown in FIG. 11C. […]

[2] = target: T2, TC45 (45 kDa PTP) (Rattus norvegicus, UniProt P35233); test: as above; assay type: cell-based; settings: 50 nM insulin, serum-starved Rat-1 cells
T2 construct: endogenous in cells; host or cells: Rat-1 fibroblasts
T2 sequence (P35233 1-382 isoform P35233-2): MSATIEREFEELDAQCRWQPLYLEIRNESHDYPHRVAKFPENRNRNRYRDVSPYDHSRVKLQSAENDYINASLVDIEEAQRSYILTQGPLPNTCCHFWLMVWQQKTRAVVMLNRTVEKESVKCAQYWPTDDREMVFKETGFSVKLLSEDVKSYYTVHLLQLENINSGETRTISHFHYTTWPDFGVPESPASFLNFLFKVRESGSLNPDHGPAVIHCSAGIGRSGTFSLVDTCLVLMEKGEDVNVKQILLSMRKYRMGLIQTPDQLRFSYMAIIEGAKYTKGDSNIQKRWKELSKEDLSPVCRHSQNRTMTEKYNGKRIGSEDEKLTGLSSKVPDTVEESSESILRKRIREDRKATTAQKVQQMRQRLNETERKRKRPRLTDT
Experimental: as §1, §2

Substance: insulin: polypeptide hormone used as stimulus
- oxidation of 50 kDa PTP (PTP1B) [1]: transiently oxidized; also recorded: induced the transient oxidation
- oxidation of 45 kDa PTP (TC45) [2]: transiently oxidized; also recorded: induced the transient oxidation
